In patent US20160194391A1 (AstraZeneca / MedImmune, published 2016):
Positions count from the first letter of the chain named.

Columns and labels:
[1] = biological target: T1, human dimeric IL-23 (eBiosciences 34-8239) (human, UniProt P29460 23-328; Q9NPF7 20-189); test: cell-based or functional assay
T1 sequence (looked up) 1: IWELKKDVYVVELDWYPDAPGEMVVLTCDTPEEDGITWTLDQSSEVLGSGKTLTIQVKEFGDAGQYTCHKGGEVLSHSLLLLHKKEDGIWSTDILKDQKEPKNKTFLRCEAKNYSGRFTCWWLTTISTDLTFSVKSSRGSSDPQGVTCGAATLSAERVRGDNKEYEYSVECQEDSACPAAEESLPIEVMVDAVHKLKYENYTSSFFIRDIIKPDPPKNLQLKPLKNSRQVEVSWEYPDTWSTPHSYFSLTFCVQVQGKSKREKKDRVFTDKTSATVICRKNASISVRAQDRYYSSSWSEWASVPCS
T1 sequence (looked up) 2: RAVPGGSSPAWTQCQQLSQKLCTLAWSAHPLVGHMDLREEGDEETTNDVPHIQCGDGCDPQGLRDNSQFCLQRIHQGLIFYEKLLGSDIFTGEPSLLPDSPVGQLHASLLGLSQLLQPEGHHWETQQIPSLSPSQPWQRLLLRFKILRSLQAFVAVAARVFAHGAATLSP

[2] = biological target: T1, human dimeric IL-23 (eBiosciences …); test: cell-based or functional assay; remark: listed apart in the source
[3] = biological target: T2, human IL-12 (human, UniProt P29459 23-219; P29460 23-328); test: ELISA, human IL-12 coated on the plate; antibody concentration not given [Binding to Human IL-12]
T2 construct: Bioassay used Prospec-Tany Cyt-362
T2 sequence (looked up) 1: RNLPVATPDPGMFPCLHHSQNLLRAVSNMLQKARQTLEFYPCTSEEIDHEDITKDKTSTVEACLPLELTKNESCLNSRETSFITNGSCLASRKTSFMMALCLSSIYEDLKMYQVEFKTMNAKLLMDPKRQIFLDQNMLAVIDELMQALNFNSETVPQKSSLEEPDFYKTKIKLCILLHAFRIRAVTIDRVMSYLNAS
T2 sequence (looked up) 2: T1 sequence (looked up) 1

[4] = biological target: T3, IL-23 p40-p19-His (human); test: ELISA on IL-23 p40-p19-His (coated directly or through anti-His)
T3 construct: Single-chain fusion coated on the IL-23 ELISA plates; also called p40:p19-6×HIS
T3 chain: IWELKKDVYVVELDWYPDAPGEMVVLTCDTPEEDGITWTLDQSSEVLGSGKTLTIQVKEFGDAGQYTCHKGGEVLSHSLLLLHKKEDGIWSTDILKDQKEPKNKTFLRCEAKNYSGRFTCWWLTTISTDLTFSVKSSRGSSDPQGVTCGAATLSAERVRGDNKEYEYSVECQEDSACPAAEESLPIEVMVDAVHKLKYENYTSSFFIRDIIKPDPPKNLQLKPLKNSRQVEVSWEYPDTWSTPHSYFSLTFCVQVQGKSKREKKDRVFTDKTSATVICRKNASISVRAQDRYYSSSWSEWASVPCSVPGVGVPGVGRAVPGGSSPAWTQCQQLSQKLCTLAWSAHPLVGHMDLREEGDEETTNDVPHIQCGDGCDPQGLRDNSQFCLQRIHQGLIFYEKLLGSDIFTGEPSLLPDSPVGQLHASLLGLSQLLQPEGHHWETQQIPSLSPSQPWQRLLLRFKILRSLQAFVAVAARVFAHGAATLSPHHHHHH
Procedure: For the indirect binding method anti-His antibody (Cat # A00613, GenScript Corp., New Jersey, USA) was added to the plates in 100 μl/well of PBS at 0.01-0.02 ug/ml. Plates were incubated 1 hour at 37C, or overnight at 4C. To block non-specific binding 100 μl/well PBS containing 10% goat serum (Cat #16210-072, Invitrogen, USA) was added to each well, after which plates were rinsed 5 times with de-ionized water. IL-23 p40-p19-His (SEQ ID 4) in 100 μl/well PBS/10% goat serum at 0.5 μg/ml was added and incubated for 1 hour at room temperature.
For the direct binding method IL-23 p40-p19-His (SEQ ID 4) was added to an ELISA plate in 100 μl PBS at 0.5 μg/ml. Plates were incubated 1 hour at 37C, or overnight at 4C. To block non-specific binding 100 μl/well PBS containing 10% goat serum (Cat #16210-072, Invitrogen, USA) was added to each well. Plates were incubated 1 hour at room temperature.
After IL-23 binding, plates were rinsed 5 times with de-ionized water. To each well was added 50 μl PBS/10% goat serum. Test samples were then added at 50 μl/well. Plates were incubated 1 hour at room temperature and were rinsed 5 times with de-ionized water. To each well was added 100 μl peroxidase-conjugated goat anti-rabbit IgG (Cat. #111-035-008, Jackson Immuno Research) diluted 1:5000 in PBS/10% goat serum. Plates were incubated 1 hour at room temperature, then washed 5 times with de-ionized water. TMB substrate (Thermo Scientific, Rockford, Ill., USA) was added at 100 μl/well. The reaction was stopped with 100 μl N H₂SO₄ (JT Baker, Phillipsburg, N.J., USA). Absorbance was measured at 450 nm using a Molecular Devices M2 plate reader.

[5] = biological target: T4, human IL-6 (human, UniProt P05231 30-212); test: cell-based or functional assay
[6] = biological target: T5, Primate IL-6 (Macaca mulatta, UniProt P51494); test: cell-based or functional assay
T5 sequence (cytokine, looked up): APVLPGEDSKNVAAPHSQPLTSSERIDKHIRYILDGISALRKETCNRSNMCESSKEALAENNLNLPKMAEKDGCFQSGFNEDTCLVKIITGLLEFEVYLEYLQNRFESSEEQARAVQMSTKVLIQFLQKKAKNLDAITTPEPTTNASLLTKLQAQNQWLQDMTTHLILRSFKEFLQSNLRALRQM

[7] = biological target: T4, human IL-6; test: SPR (SensiQ Pioneer), mAb captured on protein G, IL-6 as analyte (3×FLAG-IL-6 or IL-6 CYT-213, 1-100 nM), 25 C, 1:1 model
Procedure: Equilibrium constants for rabbit human chimeric mAbs were determined by binding the mAb to the protein G coated chip followed by binding of each analyte (IL-6 or IL-23) to its respective mAb. In order to minimize mass transfer effects, the surface densities of the mAbs for each analyte were adjusted so that as analyte binding approached saturation its corresponding RU fell between 200 and 300. […] For each binding and dissociation cycle the chip surface was regenerated with 15 uL of 20 mM NaOH (5671-02, Mallinckrodt Baker, Philliphsburg, N.J.). The assay temperature was maintained at 25° C. with an analyte flow rate of 50 μL/min and included a 2 minute association phase and 10-30 minute dissociation phase. The on/off rates (kₐ/kd) and dissociation constants (KD) were determined using the format described above along with pseudo-first-order 1:1 interaction model software (Qdat, ICx Nomadics, Stillwater, Okla.).

[8] = biological target: T2, human IL-12; test: cell-based or functional assay
[9] = biological target: T3, IL-23 p40-p19-His; test: ELISA on IL-23 p40-p19-His

B1: 49B7 chimeric mAb (antibody, V domains shown)
VH: QSLEESGGRLVTPGGSLTLTCTVSGIDLSDYDMSWVRQAPGKGLEWIGIVYDIGTIYYAPWAEGRFTISKTSTTVDLKMSSLTTEDTATYFCAREAPGYSDGDIWGPGTLVTVSS
VL: ALVMTQTPSSVSAAVGGTVTINCQASETVDNNKRLSWYQQKPGQPPKLLIYGAATLASGVPSRFKGSGSGAHFTLTISNVQREDAATYVCGGYKDSTDVGFGGGTELEILR
notes: Rabbit/human chimeric IgG (human IgG1, kappa); HEK293
EC50, inhibition of IL-23 induced IL-17 secretion by mouse spleen cells [1]: 0.988 ng/mL
IC50 (read off the curve) (IL-17 from mouse splenocytes, OD450) [2]: ~0.6 ng/mL
binding result [3]: binds

B2: 35H4 chimeric mAb (antibody, V domains shown)
VH: B1 VH with V75M, R94T
VL: LVMTQTPSSVSAAVGGTVTINCQASETVGNNNRLSWYQQKPGQPPKLLIYGAATLASGVPSRFKGSGSGAHFTLTISNVQREDVATYVCGGYKDSTDVGFGGGTELEILR
notes: Rabbit/human chimeric IgG (human IgG1, kappa); HEK293; also called 35H4 clone
binding result [4]: binds

B3: 18D4 chimeric mAb (antibody, V domains shown)
VH: QSVEESGGRLVTPGTPLTLTCTVSGFSLSSYAMTWVRQAPGKGLEWIGTSYVYSGDTWYASWVKGRFTISKTSTTVDLKITSPTTEDTATYFCARVGDYDDYGAHDVFDSWGPGTLVTVSS
VL: YDMTQTPASVEVAVGGTVTIKCQASESISSWLSWYQQKPGQRPKLLLYRASTLASGVSSRFSGSGYGTEFTLTISGVQCEDAATYYCQQGYTGGNVDNAFGGGTKVVVVR
notes: Rabbit/human chimeric IgG (human IgG1, kappa); HEK293; also called 18D4 clone
EC50, inhibition of IL-6 induced B9 cell proliferation [5]: 0.054 ng/mL
IC50 (read off the curve) (B9 proliferation, OD570-600) [6]: ~4 ng/mL
Kd [7]: 0.128 nM
koff [7]: 8.49e-05 s⁻¹
kon [7]: 666000 M⁻¹ s⁻¹

B4: 16C6 chimeric mAb (antibody, V domains shown)
VH: QSVEESGGRLVTPGTPLTLTCTVSGFSLNSYSMSWVRQAPGKGLEWIGVIGLGGSAYYASWAKGRFTISGASTTVDLKITSPTTEDTATYFCARATYSDDNIWGPGTLVTVSS
VL: DVVMTQTPSSTSAAVGGTVTIKCQASQSISSWLSWYQQKPGQRPKPLIVRASTLASGVPSRFKGNRSGTEYTLTISGVQREDAAAYYCLGGDGNVSNFGGGTKVVVVR
notes: as for B1
EC50, inhibition of IL-23 induced IL-17 secretion by mouse spleen cells [1]: 0.219 ng/mL
binding result [4]: binds

B5: 4F3 chimeric mAb (antibody, V domains shown)
VH: QSVEESGGRLVTPGTPLTLTCAVSGFSLSGYTMIWVRQAPGEGLEWIGIISSSGNTYYASWVKGRFTISKTSTTVDLKMISPTTEDTATYFCARGSGAYISDYFNVWGPGTLVTVSS
VL: FELTQTPSSVEAAVEGTVTIKCQASQSIDSWLSWYQQKPGQPPKLLIYSASKLAPGVPSRFSGSGSGTQFTLTIGDLECADAATYYCQSYYDVNAGYGFGGGTEVVVVR
notes: Rabbit/human chimeric IgG (human IgG1, kappa); HEK293; also called mAb 4F3
EC50: concentration necessary to inhibit bioactivity of 50 pg/ml of IL-6 [1]: 2.34 ng/mL
IC50 (read off the curve) (interferon-gamma from NK92 cells, OD450) [8]: ~2 ng/mL
binding result [9]: binds

B6: 5C5 chimeric mAb (antibody, V domains shown)
VH: QSVEESGGRLVTPGTPLTLTCTVSGFSLSSYTMIWVRQAPGEGLEWIGIISAGGSAYYASWVNGRFTISKTSTTVDLKMTSPTTGDTATYFCARGSGTYTSDYFNIWGPGTLVTVSS
VL: B5 VL with E15G, S33A, P55T, G75S, V93A, E104K
notes: Rabbit/human chimeric IgG (human IgG1, kappa); HEK293; also called mAb 5C5
EC50: concentration necessary to inhibit bioactivity of 50 pg/ml of IL-6 [1]: 1.91 ng/mL
IC50 (read off the curve) (interferon-gamma from NK92 cells, OD450) [8]: ~0.9 ng/mL
binding result [9]: binds

B7: 34E11 chimeric mAb (antibody, V domains shown)
VH: QEQLKESGGGLVTPGGSLTLTCTVSGFSLSTYDINWVRQAPGKGLEWIGYIYRGSPYYADWAKGRFTISSTSTTVGLKITSPTTVDTATYFCTRNLYSVNVLWGPGTLVTVS
VL: LVMTQTPSSTSAAVGDTVTIKCQASQSISSRLAWYQQKPGQPPKLLIYSASTLASGVPSRFKGSGSGTDYTLTISGVQREDAATYYCLGSYSNTIRTFGAGTKVEIKR
notes: Rabbit/human chimeric IgG (human IgG1, kappa); HEK293; also called 34E11 clone
EC50, inhibition of IL-23 induced IL-17 secretion by mouse spleen cells [1]: 0.05 ng/mL
binding result [4]: binds
